The values below come from paper PMC8508734 (International Journal of Molecular Sciences, 2021).

In test [1] the target is T1, histamine H3 receptor (H3R) (Rattus norvegicus, UniProt Q9QYN8).
T1 construct: gene Hrh3; long isoform H3(445)R, C-terminal RLuc / YFP fusions
Description: BRET between H3R-RLuc and H3R-YFP in HEK […] cells; also […]GTPγS binding (inverse agonist). The format is cell-based.

The target of test [2] is T2, H3R-RLuc (rat histamine H3 receptor, long isoform H3(445)R, fused to Renilla Luciferase) (rat, UniProt Q9QYN8 1-445).
T2 construct: histamine H3 receptor, rat, long isoform H3(445)R (445 residues), cDNA amplified without its stop codon and cloned into pRL-CMV-RLuc; The same construct was expressed in HEK 293 cells and in rat cortical neurons; the assay tells which; also called H3R-Luc; source: rat cortical neurons in primary culture, transfected (lipofectamine 2000); not shown: Renilla Luciferase (RLuc), C-terminal, kept
The experiment in a line: FRET or BRET; BRET donor saturation curves in intact living HEK 293 cells, constant RLuc fusion and increasing YFP fusion, 48 h after transfection, HBSS, 25 °C, coelenterazine H 5 µM; without or with imetit or thioperamide (100 nM). To be noted: partners not purified.

Take `S=C(NC1CCCCC1)N1CCC(c2cnc[nH]2)CC1` [thioperamide]: in test [1], the concentration giving a half-maximal response (EC50) was found to be 2 ± 1 nM.

B1: H3R-YFP (rat histamine H3 receptor, long isoform H3(445)R, fused to Yellow Fluorescent Protein) (receptor, UniProt Q9QYN8 1-445, looked up)
chain: MERAPPDGLMNASGTLAGEAAAAGGARGFSAAWTAVLAALMALLIVATVLGNALVMLAFVADSSLRTQNNFFLLNLAISDFLVGAFCIPLYVPYVLTGRWTFGRGLCKLWLVVDYLLCASSVFNIVLISYDRFLSVTRAVSYRAQQGDTRRAVRKMALVWVLAFLLYGPAILSWEYLSGGSSIPEGHCYAEFFYNWYFLITASTLEFFTPFLSVTFFNLSIYLNIQRRTRLRLDGGREAGPEPPPDAQPSPPPAPPSCWGCWPKGHGEAMPLHRYGVGEAGPGVEAGEAALGGGSGGGAAASPTSSSGSSSRGTERPRSLKRGSKPSASSASLEKRMKMVSQSITQRFRLSRDKKVAKSLAIIVSIFGLCWAPYTLLMIIRAACHGRCIPDYWYETSFWLLWANSAVNPVLYPLCHYSFRRAFTKLLCPQKLKVQPHGSLEQCWK
notes: histamine H3 receptor, rat, long isoform H3(445)R (445 residues), cDNA amplified without its stop codon and cloned into pEYFP-N1; The same construct was expressed in HEK 293 cells and in rat cortical neurons; the assay tells which; also called C-terminal YFP-fused H3R; source: rat cortical neurons in primary culture, transfected (lipofectamine 2000); not shown: YFP, C-terminal, kept
In the case of B1, in test [2], the “BRET50 (basal)” value worked out at 1.24 acceptor/donor ratio, the “BRET50 (with imetit 100 nM)” value came out at 1.19 acceptor/donor ratio and the “BRET50 (with thioperamide 100 nM)” value is 1.56 acceptor/donor ratio.
